Measured values published in patent publication US20120316071A1 (published 2012).
Numbering of substitutions follows the chain as printed. In names and notes the source's numbering stands.

B1: Fab VH1-46_IGHD6-6*01_IGHJ1*01 & L6_IGKJ1*01 (Fab, V domains shown)
VH: QVQLVQSGAEVKKPGASVKVSCKASGYTFTSYYMHWVRQAPGQGLEWMGIINPSGGSTSYAQKFQGRVTMTRDTSTSTVYMELSSLRSEDTAVYYCAREEYSSSSAEYFQHWGQGTLVTVSS
VL: not shown
notes: Tested as a Fab expressed in E. coli; The heavy chain came from Plasmid A (CH1 with His6 and Flag tags) and the kappa light chain from Plasmid C (kappa CL); also called Wt; wildtype
B2: Fab VH1-46_IGHD6-13*01_IGHJ4*01 & B3_IGKJ1*01 (Fab, V domains shown)
VH: B1 VH with E100G, S105W, A106Y, E107D, Q110D, H111Y
VL: not shown
notes: Germline Fab made in E. coli; VH was cloned into Plasmid A (CH1, His6 and Flag tags) and the kappa VL into Plasmid C (kappa CL)
B3: Fab VH1-46_IGHD6-6*01_IGHJ1*01 S102A/S103P/S104F (APF) & L6_IGKJ1*01 (Fab, V domains shown)
VH: B1 VH with S102A, S103P, S104F
VL: not shown
notes: Tested as a Fab expressed in E. coli; the constant parts (CH1 with His6/Flag tags, kappa CL) come from Plasmids A and C; also called APF triple mutant; H:APF & L:wt

What was measured:
[1] = target: T1, rHuman CD44/Fc Chimera, CF (R&D Systems Cat#3660-CD) (human, UniProt P16070 21-220); test: ECL multispot (MSD), antigen spotted on plate, Fab at 500.00 (column head: Fab [µM])
T1 construct: Bought recombinant protein; Fc part of the bought chimera not given

[2] = target: T2, Recombinant Human DLL4 (R&D Systems Cat#1506-D4/CF) (human, UniProt Q9NR61 27-524); test: as above
T2 construct: Bought recombinant protein; also called delta-like protein 4; rHuman DLL4

[3] = target: T3, rHuman Erythropoietin R/Fc Chimera, CF (R&D Systems Cat#963-ER) (human, UniProt P19235 25-250); test: as above
T3 construct: Bought recombinant protein; also called EPO R; EPO R/Fc; Fc part of the bought chimera not given
T3 sequence (looked up): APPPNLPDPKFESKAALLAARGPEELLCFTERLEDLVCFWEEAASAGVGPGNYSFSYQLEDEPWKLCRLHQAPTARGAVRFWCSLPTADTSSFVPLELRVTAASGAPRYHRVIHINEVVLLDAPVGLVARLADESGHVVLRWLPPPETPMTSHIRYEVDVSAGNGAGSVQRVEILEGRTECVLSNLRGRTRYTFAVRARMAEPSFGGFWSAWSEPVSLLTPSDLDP

[4] = target: T4, rHuman ErbB2/Fc Chimera, CF (R&D Systems Cat#1129-ER) (human, UniProt P04626 23-652); test: as above
T4 construct: Bought recombinant protein; Fc part of the bought chimera not given

[5] = target: T5, rHuman EGF R/Fc Chimera, CF (R&D Systems Cat#344-ER) (human, UniProt P00533 25-645); test: as above
T5 construct: Bought recombinant protein; Fc part of the bought chimera not given

[6] = target: T6, rHuman HGF R/c-MET/Fc Chimera, CF (R&D Systems Cat#358-MT/CF) (human, UniProt P08581 25-932); test: as above
T6 construct: Bought recombinant protein; also called HGF R/Fc; Fc part of the bought chimera not given

[7] = target: T7, rHuman Notch-1/Fc Chimera, CF (R&D Systems Cat#3647-TK) (human, UniProt P46531 19-526); test: as above
T7 construct: Bought recombinant chimera; Fc part of the bought chimera not given

[8] = target: T8, rHuman IGF-1 sR (insulin-like growth factor-1 soluble receptor), CF (R&D Systems Cat#391-GR) (human, UniProt P08069 31-932); test: as above
T8 construct: Bought recombinant soluble receptor

[9] = target: T9, rHuman P-Cadherin/Fc Chimera, CF (R&D Systems Cat#861-PC) (human, UniProt P22223 108-654); test: as above
T9 construct: Bought recombinant protein; Fc part of the bought chimera not given

[10] = target: T2, Recombinant Human DLL4 (R&D Systems …); test: ECL multispot (MSD), antigen spotted on plate, Fab at 0.50 (column head: Fab [µM])
[11] = target: T3, rHuman Erythropoietin R/Fc Chimera, CF …; test: as above
[12] = target: T4, rHuman ErbB2/Fc Chimera, CF (R&D …); test: as above
[13] = target: T5, rHuman EGF R/Fc Chimera, CF (R&D …); test: as above
[14] = target: T6, rHuman HGF R/c-MET/Fc Chimera, CF (R&D …); test: as above
[15] = target: T7, rHuman Notch-1/Fc Chimera, CF (R&D …); test: as above
[16] = target: T8, rHuman IGF-1 sR (insulin-like growth …); test: as above
[17] = target: T9, rHuman P-Cadherin/Fc Chimera, CF (R&D …); test: as above
[18] = target: T10, Recombinant Human DLL4 (R&D Systems Cat#1506-D4/CF) (human, UniProt Q9NR61 27-524); test: Multispot ECL (MSD), antigen spotted on plate, Fab 1000 nM; blank spot 1133
T10 construct: Bought recombinant protein; also called rHuman DLL4; delta-like protein 4

[19] = target: T11, rHuman Erythropoietin R/Fc Chimera, CF (R&D Systems Cat#963-ER) (human, UniProt P19235 25-250); test: as above
T11 construct: Bought recombinant protein; also called EPO R/Fc; Epo R; Fc part of the bought chimera not given
T11 sequence (looked up): T3 sequence (looked up)

T6 sequence (P08581 25-932, change not shown): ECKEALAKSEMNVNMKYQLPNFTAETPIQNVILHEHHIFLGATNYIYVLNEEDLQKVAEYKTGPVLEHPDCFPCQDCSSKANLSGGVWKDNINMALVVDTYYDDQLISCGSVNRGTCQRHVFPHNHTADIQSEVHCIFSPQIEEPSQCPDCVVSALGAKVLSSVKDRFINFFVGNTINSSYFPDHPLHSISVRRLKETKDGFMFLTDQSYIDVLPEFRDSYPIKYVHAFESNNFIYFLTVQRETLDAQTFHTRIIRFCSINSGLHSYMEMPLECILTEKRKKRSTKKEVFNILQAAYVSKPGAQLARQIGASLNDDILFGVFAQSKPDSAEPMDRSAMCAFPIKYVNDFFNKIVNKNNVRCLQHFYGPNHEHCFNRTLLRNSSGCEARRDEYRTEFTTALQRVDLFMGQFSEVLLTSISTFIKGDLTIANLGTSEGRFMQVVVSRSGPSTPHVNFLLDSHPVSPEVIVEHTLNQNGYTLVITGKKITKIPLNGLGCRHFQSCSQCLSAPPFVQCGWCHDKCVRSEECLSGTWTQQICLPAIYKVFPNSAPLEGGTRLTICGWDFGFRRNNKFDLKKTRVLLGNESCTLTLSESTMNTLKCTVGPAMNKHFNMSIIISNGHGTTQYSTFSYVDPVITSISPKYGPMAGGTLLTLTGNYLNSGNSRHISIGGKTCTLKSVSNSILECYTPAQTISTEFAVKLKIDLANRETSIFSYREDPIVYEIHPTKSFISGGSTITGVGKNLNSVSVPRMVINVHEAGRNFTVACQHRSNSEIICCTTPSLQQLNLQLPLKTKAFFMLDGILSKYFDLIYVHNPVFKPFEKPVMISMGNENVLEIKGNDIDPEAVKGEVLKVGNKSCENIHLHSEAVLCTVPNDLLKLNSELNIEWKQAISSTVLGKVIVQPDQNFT

| Binder | signal/noise ratio (ECL) [1] | signal/noise ratio (ECL) [2] | signal/noise ratio (ECL) [3] | signal/noise ratio (ECL) [4] | signal/noise ratio (ECL) [5] | signal/noise ratio (ECL) [6] | signal/noise ratio (ECL) [7] | signal/noise ratio (ECL) [8] | signal/noise ratio (ECL) [9] | signal/noise ratio (ECL) [10] | signal/noise ratio (ECL) [11] | signal/noise ratio (ECL) [12] | signal/noise ratio (ECL) [13] | signal/noise ratio (ECL) [14] | signal/noise ratio (ECL) [15] | signal/noise ratio (ECL) [16] | signal/noise ratio (ECL) [17] | ECL signal [18] | ECL signal [19] |
| --- | --- | --- | --- | --- | --- | --- | --- | --- | --- | --- | --- | --- | --- | --- | --- | --- | --- | --- | --- |
| B1 | 0.4 | 16.2 | 0.8 | 0.3 | 0.7 | 0.3 | 0.8 | 0.4 | 0.2 | 2.9 | 0.9 | 1 | 1.4 | 0.6 | 2 | 1.2 | 1.3 |  |  |
| B2 |  |  |  |  |  |  |  |  |  |  |  |  |  |  |  |  |  | 2780 | 8590 |
| B3 | 2.4 | 181 | 10.4 | 1.7 | 5.5 | 2.2 | 4.2 | 1.5 | 3.4 | 34.5 | 0.9 | 1 | 1.1 | 0.8 | 1.4 | 1.3 | 0.8 |  |  |
